We go through 30 molecules from US11827699 (dated 2023).

The chains are these.
T1: human FcγRIIa H131 (human, UniProt P12318)
T1 chain: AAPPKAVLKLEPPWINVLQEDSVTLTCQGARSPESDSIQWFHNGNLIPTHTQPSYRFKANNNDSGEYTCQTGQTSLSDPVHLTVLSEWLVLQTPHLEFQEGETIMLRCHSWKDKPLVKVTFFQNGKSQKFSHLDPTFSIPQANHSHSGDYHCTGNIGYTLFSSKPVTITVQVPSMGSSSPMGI

T2: human FcγRIIb (human, UniProt P31994)
T2 chain: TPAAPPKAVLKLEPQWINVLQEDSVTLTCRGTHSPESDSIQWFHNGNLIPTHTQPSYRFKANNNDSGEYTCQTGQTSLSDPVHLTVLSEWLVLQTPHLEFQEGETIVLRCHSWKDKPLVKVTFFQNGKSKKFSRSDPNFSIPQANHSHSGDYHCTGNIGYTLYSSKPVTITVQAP

T3: human FcγRIIa R131 (human, UniProt P12318)
T3 chain: T1 chain with H132R

T4: human FcγRIa (human, UniProt P12314)
T4 chain: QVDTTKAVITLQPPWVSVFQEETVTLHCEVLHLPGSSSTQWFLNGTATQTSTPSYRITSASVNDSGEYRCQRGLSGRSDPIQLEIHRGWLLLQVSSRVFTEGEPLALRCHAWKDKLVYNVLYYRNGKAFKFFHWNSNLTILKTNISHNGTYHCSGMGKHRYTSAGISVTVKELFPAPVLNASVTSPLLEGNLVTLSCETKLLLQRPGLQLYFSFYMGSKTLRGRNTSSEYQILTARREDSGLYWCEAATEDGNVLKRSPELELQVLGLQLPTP

B1: IL6R-BP492 (antibody)
chain 1: QVQLQESGPGLVKPSETLSLTCAVSGHSISHDHAWSWVRQPPGEGLEWIGFISYSGITNYNPSLQGRVTISRDNSKNTLYLQMNSLRAEDTAVYYCARSLARTTAMDYWGEGTLVTVSSASTKGPSVFPLAPSSKSTSGGTAALGCLVKDYFPEPVTVSWNSGALTSGVHTFPAVLQSSGLYSLSSVVTVPSSSLGTQTYICNVNHKPSNTKVDKKVEPKSCDKTHTCPPCPAPELLGGDSVFLFPPKPKDTLMISRTPEVTCVVIDVAEEDGEVKFNWYVDGVEVHNAKTKPREEQYNSTYRVVSVLTVLHQDWLNGKEYKCKVSNKALPAPIEKTISKAKGQPREPQVYTLPPSRDELTKNQVSLTCLVKGFYPSDIAVEWESNGQPENNYKTTPPVLDSDGSFFLYSKLTVDKSRWQQGNVFSCSVMHEALHNHYTQESLSLSP
chain 2: not shown
B2: IL6R-BP502 (antibody)
chain 1: B1 chain 1 with E235D, G239D, Y298D, A329G, A332R
chain 2: not shown
B3: IL6R-BP496 (antibody)
chain 1: B1 chain 1 with E235D, G239D, Y298D
chain 2: not shown
B4: IL6R-BP509 (antibody)
chain 1: B1 chain 1 with E235D, G239D, E274D, Y298D
chain 2: not shown
B5: IL6R-BP503 (antibody)
chain 1: B1 chain 1 with E235D, G239D, Y298D, A329G, A332R, P398M
chain 2: not shown
B6: IL6R-BP262 (antibody)
chain 1: B1 chain 1 with G239D, I266V, A269S
chain 2: not shown
B7: IL6R-BP484 (antibody)
chain 1: B1 chain 1 with E235D, G239D, I266V, E271D
chain 2: not shown
B8: IL6R-BP497 (antibody)
chain 1: B1 chain 1 with E235D, G239D, A329G, A332R
chain 2: not shown
B9: IL6R-BP494 (antibody)
chain 1: B1 chain 1 with G239D, I266V, Y298D, A332R
chain 2: not shown
B10: IL6R-BP488 (antibody)
chain 1: B1 chain 1 with E235D, G239D, Y298D, A332R
chain 2: not shown
B11: IL6R-BP500 (antibody)
chain 1: B1 chain 1 with G239D, Y298D
chain 2: not shown
B12: IL6R-BP498 (antibody)
chain 1: B1 chain 1 with E235D, G239D, A332R, P398L
chain 2: not shown
B13: IL6R-BP508 (antibody)
chain 1: B1 chain 1 with E235D, G239D, E274P, Y298D
chain 2: not shown
B14: IL6R-BP269 (antibody)
chain 1: B1 chain 1 with G239D, I266V, A269S, Y298D
chain 2: not shown
B15: IL6R-BP487 (antibody)
chain 1: B1 chain 1 with E235D, G239D, A332R, P398M
chain 2: not shown
B16: IL6R-BP239 (antibody)
chain 1: B1 chain 1 with E235D, L236Y, G239D, I266V, A269Q, E270D, Y298D, K328A, A332R
chain 2: not shown
B17: IL6R-BP228 (antibody)
chain 1: B1 chain 1 with L236Y, G239D, I266V, A269Q, E270D, K328D, A332R
chain 2: not shown
B18: IL6R-BP237 (antibody)
chain 1: B1 chain 1 with E235D, L236Y, G239D, I266V, A269Q, E270D, Y298D, K328A, A332K
chain 2: not shown
B19: IL6R-BP474 (antibody)
chain 1: B1 chain 1 with E235D, G239D, I266V, A269S, E270D, Y298D, A332S, P333S
chain 2: not shown
B20: IL6R-BP475 (antibody)
chain 1: B1 chain 1 with E235D, G239D, I266V, A269S, E270D, Y298D, A329G, A332S
chain 2: not shown
B21: IL6R-BP471 (antibody)
chain 1: B1 chain 1 with E235D, G239D, I266V, A269S, E270D, Y298D, A332R, P333S
chain 2: not shown
B22: IL6R-BP233 (antibody)
chain 1: B1 chain 1 with L236Y, G239D, I266V, A269S, E270H, A332K
chain 2: not shown
B23: IL6R-BP243 (antibody)
chain 1: B1 chain 1 with E235D, L236Y, G239D, I266V, A269S, E270D, A332R
chain 2: not shown
B24: IL6R-BP249 (antibody)
chain 1: B1 chain 1 with E235D, L236Y, G239D, I266V, A269S, E270D, Y298D, A332R
chain 2: not shown
B25: IL6R-BP220 (antibody)
chain 1: B1 chain 1 with E235D, G239D, I266V, A269S, E270D, Y298D, A332K
chain 2: not shown
B26: IL6R-BP246 (antibody)
chain 1: B1 chain 1 with E235D, G239D, I266V, A269Q, E270D, Y298D, K328A, A332R
chain 2: not shown
B27: IL6R-BP520 (antibody)
chain 1: B1 chain 1 with E235D, G239D, I266V, A269S, E274M
chain 2: not shown
B28: IL6R-BP514 (antibody)
chain 1: B1 chain 1 with E235D, G239D, I266V, A269S, E274F
chain 2: not shown
B29: IL6R-BP517 (antibody)
chain 1: B1 chain 1 with E235D, G239D, I266V, A269S, E274I
chain 2: not shown
B30: IL6R-BP348 (antibody)
chain 1: B1 chain 1 with E235D, G239D, I266V
chain 2: not shown

Positions count from the first letter of the chain named.

One experiment has as its target T1, human FcγRIIa H131. Briefly: SPR.
Usually Kd stands for a measure of binding affinity in units of concentration. Regarding B1, the Kd stood at 16000 nM.

The molecule B2 yielded a Kd of 1300 nM.

For B3, the Kd was found to be 3700 nM. This Kd lies about 2.8-fold higher than the previous one.

As for B4, the Kd amounted to 7900 nM.

The molecule B5 yielded a Kd of 860 nM. This Kd lies about 9.2-fold lower than the previous one.

With B6, the Kd was 45000 nM.

Molecule B7 showed a Kd of 11000 nM.

B8 showed a Kd of 960 nM.

Take B9: binding was put at a Kd of 5400 nM.

The molecule B10 registered a Kd of 1600 nM.

B11: the Kd was 25000 nM.

Molecule B12 came in with a Kd of 930 nM.

On to B13, for which the Kd turned out to be 20000 nM.

In the case of B14, the dissociation constant Kd was 72000 nM. Against the preceding molecule, the Kd is about 3.6-fold higher.

The molecule B15 came in with a Kd of 840 nM. Compared with the last molecule, the Kd is about 86-fold lower.

In the next experiment the target is T2, human FcγRIIb. Briefly: SPR. (In general: In SPR one partner is held on a chip, and binding of the other changes the refractive index at the surface.)
For B16, the Kd amounted to 60 nM.

In turn, B17 had a Kd of 40 nM.

The molecule B18 gave a Kd of 100 nM.

The next experiment concerns the target T3, human FcγRIIa R131. Briefly: SPR.
Take B19: the Kd came out at 3000 nM.

For B20, the Kd was 1000 nM.

In turn, B21 displayed a Kd of 800 nM.

Another experiment deals with T4, human FcγRIa. In words: SPR.
In turn, B22 showed a Kd of 70 nM.

For the molecule B23, the Kd is 3 nM.

In turn, B24 yielded a dissociation constant Kd of 7 nM.

Take B25: the dissociation constant (Kd) turned out to be 20 nM. This Kd lies about 2.9-fold higher than the previous one.

In turn, B26 showed a Kd of 8 nM.

Another experiment concerns the target T2, human FcγRIIb. In words: SPR. The source holds these as a separate data set.
For B1, the Kd is 24 nM. That is a double-digit nanomolar value.

Turning to B2, binding was characterised by a dissociation constant (Kd) of 3.7 nM.

B3 displayed a Kd of 18 nM.

B4 gave a Kd of 18 nM.

For the molecule B5, the affinity, expressed as Kd, was 1.7 nM.

On to B6, for which the Kd amounted to 120 nM. This Kd is about 71-fold higher than that of the molecule before.

B7 had a Kd of 46 nM.

As for B8, the Kd worked out at 4.1 nM.

B9 had a Kd of 6.6 nM.

B10: the dissociation constant Kd amounted to 1.9 nM.

In turn, B11 showed a Kd of 24 nM.

The molecule B12 came in with a Kd of 1.7 nM. This Kd lies about 14-fold lower than the previous one.

B13 returned a Kd of 21 nM.

Consider B14, for which the equilibrium dissociation constant (Kd) stood at 110 nM.

Molecule B15 registered a Kd of 1.2 nM.

The target in another experiment is T3, human FcγRIIa R131. Briefly: SPR. This is another data set of the same source.
B1 returned a Kd of 920 nM.

B2 showed a Kd of 110 nM.

Molecule B3 registered an equilibrium dissociation constant (Kd) of 470 nM.

As for B4, the affinity, expressed as Kd, was 520 nM. This Kd and that of the molecule before are within 1.5-fold of each other.

The molecule B5 displayed a Kd of 57 nM.

Regarding B6, the Kd came out at 2000 nM. This Kd is about 35-fold higher than that of the molecule before.

B7 had a Kd of 780 nM. Against the preceding molecule, the Kd is about 2.6-fold lower.

Molecule B8 showed a Kd of 85 nM.

The molecule B9 gave a Kd of 250 nM. This Kd is about 2.9-fold higher than that of the molecule before.

With B10, the Kd was determined as 74 nM.

As to B11, the Kd amounted to 720 nM.

The molecule B12 had a Kd of 51 nM.

For the molecule B13, the dissociation constant (Kd) is 540 nM.

For the molecule B14, binding was characterised by a dissociation constant (Kd) of 2200 nM. This Kd lies about 4.1-fold higher than the previous one.

B15 returned a Kd of 39 nM.

For a further experiment, the target named is T3, human FcγRIIa R131. Briefly: SPR. The source holds these as a separate data set.
Regarding B27, the Kd was 3000 nM.

Regarding B28, binding was characterised by a dissociation constant (Kd) of 30000 nM.

Turning to B29, the Kd stood at 2100 nM. This Kd is about 14-fold lower than that of the molecule before.

B30 had a Kd of 700 nM.

For another experiment, the target named is human FcγRIIIa V158 (human, UniProt P08637). In words: SPR.
Chain of human FcγRIIIa V158 (P08637 17-208 F176V): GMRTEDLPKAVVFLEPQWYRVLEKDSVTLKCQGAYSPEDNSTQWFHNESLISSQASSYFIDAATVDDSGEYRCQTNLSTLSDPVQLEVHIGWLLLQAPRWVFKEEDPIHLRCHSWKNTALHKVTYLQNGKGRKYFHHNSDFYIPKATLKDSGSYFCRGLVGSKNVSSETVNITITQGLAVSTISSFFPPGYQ
B1 displayed a Kd of 36000 nM. This lies in the double-digit micromolar range.

In the case of B2, the affinity, expressed as Kd, was 24000 nM.

Regarding B3, the Kd was 30000 nM.

For B4, the Kd came out at 23000 nM. The Kd values of the last two molecules are within 1.5-fold of each other.

With B5, the affinity, expressed as Kd, was 21000 nM. The Kd values of the last two molecules are within 1.5-fold of each other.

B6: binding was put at a Kd of 56000 nM. This Kd is about 2.7-fold higher than that of the molecule before.

As to B7, binding was put at a Kd of 25000 nM.

As to B8, binding was characterised by a dissociation constant (Kd) of 28000 nM.

In the case of B9, the affinity, expressed as Kd, was 40000 nM. The Kd values of the last two molecules are within 1.5-fold of each other.

Molecule B10 registered an equilibrium dissociation constant (Kd) of 20000 nM.

On to B11, for which the Kd was 39000 nM.

As for B12, the Kd was found to be 10000 nM.

In turn, B13 returned a Kd of 61000 nM. Against the preceding molecule, the Kd is about 6.1-fold higher.

Consider B14, for which the Kd was 140000 nM.

As for B15, the affinity, expressed as Kd, was 10000 nM. Compared with the last molecule, the Kd is about 14-fold lower.

The target in another experiment is T4, human FcγRIa. In words: SPR. The source holds these as a separate data set.
B1 gave a Kd of 0.79 nM.

B2 yielded a Kd of 2.1 nM.

Turning to B3, the Kd was determined as 1.2 nM.

The molecule B4 displayed a Kd of 1.1 nM.

In turn, B5 came in with a Kd of 1.2 nM.

For the molecule B6, binding was put at a Kd of 10 nM.

For B7, the Kd is 0.82 nM.

In the case of B8, the Kd came out at 2.1 nM.

For B9, the Kd amounted to 3.9 nM.

B10 came in with a Kd of 2.2 nM.

The molecule B11 gave a dissociation constant (Kd) of 2.3 nM.

The molecule B12 yielded a Kd of 1.3 nM.

B13 displayed a Kd of 1.4 nM. The Kd values of the last two molecules are within 1.5-fold of each other.

Molecule B14 registered a Kd of 14 nM. This Kd is about 10-fold higher than that of the molecule before.

With B15, the affinity, expressed as Kd, was 1.2 nM.
